Source: IntAct's records for PubMed 19172752

B1: General transcription factor IIH subunit 4 (Homo sapiens), Q92759 (parent)
chain: MESTPSRGLNRVHLQCRNLQEFLGGLSPGVLDRLYGHPATCLAVFRELPSLAKNWVMRMLFLEQPLPQAAVALWVKKEFSKAQEESTGLLSGLRIWHTQLLPGGLQGLILNPIFRQNLRIALLGGGKAWSDDTSQLGPDKHARDVPSLDKYAEERWEVVLHFMVGSPSAAVSQDLAQLLSQAGLMKSTEPGEPPCITSAGFQFLLLDTPAQLWYFMLQYLQTAQSRGMDLVEILSFLFQLSFSTLGKDYSVEGMSDSLLNFLQHLREFGLVFQRKRKSRRYYPTRLAINLSSGVSGAGGTVHQPGFIVVETNYRLYAYTESELQIALIALFSEMLYRFPNMVVAQVTRESVQQAIASGITAQQIIHFLRTRAHPVMLKQTPVLPPTITDQIRLWELERDRLRFTEGVLYNQFLSQVDFELLLAHARELGVLVFENSAKRLMVVTPAGHSDVKRFWKRQKHSS
partner: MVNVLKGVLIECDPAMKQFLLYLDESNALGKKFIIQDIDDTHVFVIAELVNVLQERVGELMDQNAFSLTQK

Variants of: B1
Conditions: with tf2h5_human GTF2H5, Q6ZYL4

Variant | effect of a mutation on the interaction
MESTPSRGLNRVHLQCRNLQEFLGGLSPGVLDRLYGHPATCLAVFRELPSLAKNWVMRMLFLEQPLPQAAVALWVKKEFSKAQEESTGLLSGLRIWHTQLLPGGLQGLILNPIFRQNLRIALLGGGKAWSDDTSQLGPDKHARDVPSLDKYAEERWEVVLHFMVGSPSAAVSQDLAQLLSQAGLMKSTEPGEPPCITSAGFQFLLLDTPAQLWYFMLQYLQTAQSRGMDLVEILSFLFQLSFSTLGKDYSVEGMSDSLLNFLQHLREFGLVFQRKRKSRRYYPTRLAINLSSGVSGAGGTVHQPGFIVVETNYRLYAYTESELQIALIALFSEMLYRFPNMVVAQVTRESVQQAIASGITAQQIIHFLRTRAHPVMLKQTPVLPPTITDQIRLWELERDRLRFTEGVLYNQFLSQVDFELLLAHARELGVLVFENSAAALMVVTPAGHSDVKRFWKRQKHSS [K438A;R439A] | decreasing interaction
